# Experimental data reported in US20190233493A1 (Sanofi, published 2019).
# *1 amine or outer side, *2 acyl side, *3 side chain or, on linkers, in order; H or OH if unused. Primed or numbered codes have the meaning given here. Side-chain parts run from the residue outwards. [ ]: non-standard residue; d: D form. The star is where a group is joined. PEG2DGA = 2-[2-[3-[2-[2-(3-aminopropoxy)ethoxy]ethoxy]propylamino-2-oxo-ethoxy]acetyl; TTDS(3) = O=C(CCC(=O)[*:2])NCCCOCCOCCOCCCN[*:1]; Trp(5-OH) = N[C@@H](Cc1c[nH]c2ccc(O)cc12)C(=O)O; Heptadecanoyl = CCCCCCCCCCCCCCCCC(=O)*; γGlu = O=C(O)[C@H](CCC(=O)[*:2])N[*:1]; Pentadecanoyl = CCCCCCCCCCCCCCC(=O)*; Arg(Me) = CNC(=N)NCCC[C@H](N)C(=O)O; Stearoyl = CCCCCCCCCCCCCCCCCC(=O)*; Palmitoyl = CCCCCCCCCCCCCCCC(=O)*; αMeF = C[C@](N)(Cc1ccccc1)C(=O)O; αMeK = C[C@](N)(CCCCN)C(=O)O; Lauroyl = CCCCCCCCCCCC(=O)*; Nle = CCCC[C@H](N)C(=O)O; PEG2′ = PEG2 spacer unit; PEG2″ = not defined here; Aib = CC(C)(N)C(=O)O
# T1: RXFP1 receptor (UniProt Q9HBX9 1-757, limits assumed)
# T1 sequence (looked up): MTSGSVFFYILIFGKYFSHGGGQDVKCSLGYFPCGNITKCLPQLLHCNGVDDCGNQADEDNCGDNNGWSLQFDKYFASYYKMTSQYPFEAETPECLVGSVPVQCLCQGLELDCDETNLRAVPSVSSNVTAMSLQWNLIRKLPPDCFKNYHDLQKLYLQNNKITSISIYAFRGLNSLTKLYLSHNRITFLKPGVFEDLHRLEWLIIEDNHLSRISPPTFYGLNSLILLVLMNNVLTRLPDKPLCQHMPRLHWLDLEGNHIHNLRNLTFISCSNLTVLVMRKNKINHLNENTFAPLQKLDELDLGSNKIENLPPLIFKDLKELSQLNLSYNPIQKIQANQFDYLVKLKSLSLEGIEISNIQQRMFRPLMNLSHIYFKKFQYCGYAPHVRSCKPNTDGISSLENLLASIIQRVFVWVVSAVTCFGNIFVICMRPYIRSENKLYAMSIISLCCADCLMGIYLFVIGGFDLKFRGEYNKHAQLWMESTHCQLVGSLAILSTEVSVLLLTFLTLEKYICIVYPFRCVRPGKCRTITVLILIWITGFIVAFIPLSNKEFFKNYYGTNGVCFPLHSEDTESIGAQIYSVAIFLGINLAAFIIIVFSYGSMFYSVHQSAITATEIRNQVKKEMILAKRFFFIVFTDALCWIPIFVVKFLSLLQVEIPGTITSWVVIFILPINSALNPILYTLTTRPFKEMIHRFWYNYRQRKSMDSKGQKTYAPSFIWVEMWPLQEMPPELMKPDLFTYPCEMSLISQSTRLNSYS
# Molecular target: T1, RXFP1 receptor
# Experiment: cell-based or functional assay
Binder,"EC50 (nM), OVCAR 5 cells (cAMP) [nM]","EMax, OVCAR 5 cells (cAMP) [%]"
Ac-LEGREKVRAK(Ac)I[Aib][Aib]EG[Nle]STFS[αMeK]RAK(Ac)[TTDS(3)][TTDS(3)][γGlu][γGlu][γGlu]K([γGlu-Palmitoyl])-NH2 (SMILES CCCCCCCCCCCCCCCC(=O)N[C@@H](CCC(=O)NCCCC[C@H](NC(=O)CC[C@H](NC(=O)CC[C@H](NC(=O)CC[C@H](NC(=O)CCC(=O)NCCCOCCOCCOCCCNC(=O)CCC(=O)NCCCOCCOCCOCCCNC(=O)[C@H](CCCCNC(C)=O)NC(=O)[C@H](C)NC(=O)[C@H](CCCNC(=N)N)NC(=O)[C@](C)(CCCCN)NC(=O)[C@H](CO)NC(=O)[C@H](Cc1ccccc1)NC(=O)[C@@H](NC(=O)[C@H](CO)NC(=O)[C@H](CCCC)NC(=O)CNC(=O)[C@H](CCC(=O)O)NC(=O)C(C)(C)NC(=O)C(C)(C)NC(=O)[C@@H](NC(=O)[C@H](CCCCNC(C)=O)NC(=O)[C@H](C)NC(=O)[C@H](CCCNC(=N)N)NC(=O)[C@@H](NC(=O)[C@H](CCCCN)NC(=O)[C@H](CCC(=O)O)NC(=O)[C@H](CCCNC(=N)N)NC(=O)CNC(=O)[C@H](CCC(=O)O)NC(=O)[C@H](CC(C)C)NC(C)=O)C(C)C)[C@@H](C)CC)[C@@H](C)O)C(=O)O)C(=O)O)C(=O)O)C(N)=O)C(=O)O) [peptide of SEQ ID NO: 157],0.02,89
Ac-LEGREKVRAK(Ac)I[Aib][Aib]EG[Nle]ST[αMeF]S[αMeK]RAK(Ac)[PEG2″][PEG2″][PEG2″][PEG2″][γGlu][γGlu][γGlu]K([γGlu-Palmitoyl])-NH2 [peptide of SEQ ID NO: 152],0.04,91
Ac-LEGREKVRAK(Ac)I[Aib][Aib]EG[Nle]STFS[Aib]RKK(Ac)K([PEG2′-PEG2′-PEG2′-PEG2′-γGlu-γGlu-γGlu-Palmitoyl])-NH2 [peptide of SEQ ID NO: 153],0.26,89
Ac-LEGREKVRAK(Ac)I[Aib][Aib]EG[Nle]STWS[αMeK]RKK(Ac)[PEG2″][PEG2″][PEG2″]K([γGlu-γGlu-γGlu-γGlu-Stearoyl])-NH2 [peptide of SEQ ID NO: 16],0.02,87
Ac-LEGREKVRAK(Ac)I[Aib][Aib]EG[Nle]STWS[Aib]AAK(Ac)K([PEG2′-PEG2′-PEG2′-γGlu-γGlu-γGlu-Stearoyl])-NH2 [peptide of SEQ ID NO: 155],1.17,95
Ac-LEGREKVRAQI[Aib][Aib]EG[Nle]STWS[Aib]RKK([γGlu-Palmitoyl])-NH2 (SMILES CCCCCCCCCCCCCCCC(=O)N[C@@H](CCC(=O)NCCCC[C@H](NC(=O)[C@H](CCCCN)NC(=O)[C@H](CCCNC(=N)N)NC(=O)C(C)(C)NC(=O)[C@H](CO)NC(=O)[C@H](Cc1c[nH]c2ccccc12)NC(=O)[C@@H](NC(=O)[C@H](CO)NC(=O)[C@H](CCCC)NC(=O)CNC(=O)[C@H](CCC(=O)O)NC(=O)C(C)(C)NC(=O)C(C)(C)NC(=O)[C@@H](NC(=O)[C@H](CCC(N)=O)NC(=O)[C@H](C)NC(=O)[C@H](CCCNC(=N)N)NC(=O)[C@@H](NC(=O)[C@H](CCCCN)NC(=O)[C@H](CCC(=O)O)NC(=O)[C@H](CCCNC(=N)N)NC(=O)CNC(=O)[C@H](CCC(=O)O)NC(=O)[C@H](CC(C)C)NC(C)=O)C(C)C)[C@@H](C)CC)[C@@H](C)O)C(N)=O)C(=O)O) [peptide of SEQ ID NO: 2],24,100
Ac-LEGREKVRAK(Ac)I[Aib][Aib]EG[Nle]STFS[αMeK]RAK(Ac)K([PEG2′-PEG2′-PEG2′-PEG2′-γGlu-γGlu-γGlu-γGlu-Palmitoyl])-NH2 [peptide of SEQ ID NO: 154],0.4,92
Ac-LEGREKVRAK(Ac)I[Aib][Aib]EG[Nle]ST[Trp(5-OH)]S[Aib]RKK(Ac)K([PEG2′-PEG2′-PEG2′-γGlu-γGlu-γGlu-Stearoyl])-NH2 [peptide of SEQ ID NO: 158],0.14,90
Ac-LEGREKVRAK(Ac)I[Aib][Aib]EG[Nle]STFS[αMeK]RKK(Ac)[PEG2″][PEG2″][PEG2″][PEG2″][γGlu][γGlu]K([γGlu-γGlu-Palmitoyl])-NH2 [peptide of SEQ ID NO: 159],0.02,88
Ac-LEGREKVRAK(Ac)I[Aib][Aib]EG[Nle]STWS[Aib]RKK(Ac)K([PEG2′-PEG2′-PEG2′-γGlu-γGlu-γGlu-Pentadecanoyl])-NH2 [peptide of SEQ ID NO: 163],5.3,87
Ac-LEGREKVRAK(Ac)I[Aib][Aib]EG[Nle]STFS[αMeK][Arg(Me)]AK(Ac)[PEG2″][PEG2″][PEG2″][PEG2″][γGlu][γGlu][γGlu]K([γGlu-Palmitoyl])-NH2 [peptide of SEQ ID NO: 151],0.14,90
Ac-LEGREKVRAK(Ac)I[Aib][Aib]EG[Nle]STWS[Aib]RKK(Ac)K([PEG2′-PEG2′-PEG2′-γGlu-γGlu-γGlu-Heptadecanoyl])-NH2 [peptide of SEQ ID NO: 164],0.79,93
Ac-LEGREKVRAK(Ac)I[Aib][Aib]EG[Nle]STFSXRAK(Ac)[PEG2′][PEG2′][PEG2′][PEG2′][γGlu][γGlu]K([γGlu-γGlu-Palmitoyl])-NH2 (not fully specified (some residues); printed as Ac-L-E-G-R-E-K-V-R-A-K(Ac)-I-Aib-Aib-E-G-Nle-S-T-F-S-Mly-R-A-K(Ac)-PEG2-PEG2-PEG2-PEG2-gE-gE-K(gE-gE-Palm)-NH2) [peptide of SEQ ID NO: 160],0.28,86
Ac-LEGREKVRAK(Ac)I[Aib][Aib]EGQSTFS[αMeK]RAK(Ac)[PEG2′][PEG2′][PEG2′][PEG2′]K([γGlu-γGlu-γGlu-γGlu-Lauroyl])-NH2 [peptide of SEQ ID NO: 161],12.1,94
Ac-LEGREKVRAK(Ac)I[Aib][Aib]EG[Nle]STWS[Aib]AAK(Ac)K([PEG2DGA-PEG2DGA-γGlu-γGlu-γGlu-Stearoyl])-NH2 [peptide of SEQ ID NO: 156],0.06,90
